Experimental data taken from patent US20210040181A1 (Bristol-Myers Squibb, published 2021).

B1: 679B01 (designed binder)
chain: VSDVPRDLEVVAATPTSLLISWLLLGAPCRYYRITYGETGGNSPVQEFTVPWMGLTATISGLKPGVDYTITVYAVTSERAPCVKVWRCPISINYRT
notes: 10Fn3-based clone expressed in E. coli as His6 tagged protein; not shown: His6 tag
B2: 679B09 (designed binder)
chain: VSDVPRDLEVVAATPTSLLISWMRWYAPRRYYRITYGETGGNSPVQEFTVPFWQGTATISGLKPGVDYTITVYAVTRGQSGLGMPISINYRT
notes: as for B1
B3: 679B10 (designed binder)
chain: VSDVPRDLEVVAATPTSLLISWRLTAPLGRYYRITYGETGGNSPVQEFTVPDIPFTATISGLKPGVDYTITVYAVTLSDSAHGGLRDVPISINYRT
notes: as for B1
B4: 679C10 (designed binder)
chain: VSDVPRDLEVVAATPTSLLISWSRYAPGGRYYRITYGETGGNSPVQEFTVPDVPWTATISGLKPGVDYTITVYAVTLSNYEYLARNPISINYRT
notes: as for B1
B5: 679F03 (designed binder)
chain: VSDVPRDLEVVAATPTSLLISWYHYYSGSQRYYRITYGETGGNSPVQEFTVPHEVYTATISGLKPGVDYTITVYAVTDYAYKEYEEYPISINYRT
notes: as for B1
B6: 679F09 (designed binder)
chain: VSDVPRDLEVVAATPTSLLISWQVPRPMYQRYYRITYGETGGNSPVQEFTVPGGVRTATISGLKPGVDYTITVYAVTDYMHSEYRQYPISINYRT
notes: 10Fn3-based clone expressed in E. coli as His6 tagged protein; also called clone 679F09; not shown: His6 tag
B7: 679G06 (designed binder)
chain: VSDVPRDLEVVAATPTSLLISWYSDYYDNRYYRITYGETGGNSPVQEFTVPRYMMTATISGLKPGVDYTITVYAVTYSYHDPNPMMPISINYRT
notes: as for B1
B8: 867A01 (designed binder)
chain: VSDVPRDLEVVAATPTSLLISWQQQHTNYRYYRITYGETGGNSPVQEFTVPGRASTATISGLKPGVDYTITVYAVTEHPYYGDPPISINYRT
notes: as for B1
B9: 867E02 (designed binder)
chain: VSDVPRDLEVVAATPTSLLISWIRRAKPGRYYRITYGETGGNSPVQEFTVPDVPWTATISGLKPGVDYTITVYAVTLDGVRRVGYLDHPISINYRT
notes: as for B1
B10: 867A03 (designed binder)
chain: VSDVPRDLEVVAATPTSLLISWTYRHYPERYYRITYGETGGNSPVQEFTVPDPDSTATISGLKPGVDYTITVYAVTYNHSSTPISINYRT
notes: as for B1
B11: 867C04 (designed binder)
chain: VSDVPRDLEVVAATPTSLLISWESKYVNYRYYRITYGETGGNSPVQEFTVPHLMTATISGLKPGVDYTITVYAVTVGGDHMYSSLPISINYRT
notes: as for B1
B12: 867A05 (designed binder)
chain: VSDVPRDLEVVAATPTSLLISWYYRKYPGRYYRITYGETGGNSPVQEFTVPDEHTTATISGLKPGVDYTITVYAVTYDSPSQPISINYRT
notes: as for B1
B13: 867E05 (designed binder)
chain: VSDVPRDLEVVAATPTSLLISWNRHAMASRYYRITYGETGGNSPVQEFTVPDVPFTATISGLKPGVDYTITVYAVTMSDKAMDMRTPSIGPISINYRT
notes: as for B1
B14: 679A01 (designed binder)
chain: VSDVPRDLEVVAATPTSLLISWARYAGSDRYYRITYGETGGNSPVQEFTVPDVPFTATISGLKPGVDYTITVYAVTMGHAPTVDIHWTPSPISINYRT
notes: as for B1
B15: 867C07 (designed binder)
chain: VSDVPRDLEVVAATPTSLLISWHSNYVDYRYYRITYGETGGNSPVQEFTVPHISDITATISGLKPGVDYTITVYAVTVEDMVRESYPPISINYRT
notes: as for B1
B16: 867B08 (designed binder)
chain: VSDVPRDLEVVAATPTSLLISWSGSYKSYRYYRITYGETGGNSPVQEFTVPHYDHATATISGLKPGVDYTITVYAVTVDYTAVQVSYPISINYRT
notes: as for B1
B17: 867H08 (designed binder)
chain: VSDVPRDLEVVAATPTSLLISWLRVPAYDRYYRITYGETGGNSPVQEFTVPDVPWTATISGLKPGVDYTITVYAVTLDESDMRVGVPISINYRT
notes: as for B1
B18: 867B09 (designed binder)
chain: VSDVPRDLEVVAATPTSLLISWYLSHSYMRYYRITYGETGGNSPVQEFTVPVIHYTATISGLKPGVDYTITVYAVTSDKISVTVSGPISINYRT
notes: as for B1
B19: 867B10 (designed binder)
chain: VSDVPRDLEVVAATPTSLLISWKSVYVDYRYYRITYGETGGNSPVQEFTVPHSNLTATISGLKPGVDYTITVYAVTVYESYVANDSPISINYRT
notes: as for B1
B20: 867F10 (designed binder)
chain: VSDVPRDLEVVAATPTSLLISWHNTYKDYRYYRITYGETGGNSPVQEFTVPHMAYNTATISGLKPGVDYTITVYAVTVTMQALLYSIPISINYRT
notes: as for B1
B21: 679A05 (designed binder)
chain: VSDVPRDLEVVAATPTSLLISWARYAECGRYYRITYGETGGNSPVQEFTVPDVPWTATISGLKPGVDYTITVYAVTLGKPPLPGWVSGLDPISINYRT
notes: as for B1
B22: 679A10 (designed binder)
chain: VSDVPRDLEVVAATPTSLLISWDRMLSFLRYYRITYGETGGNSPVQEFTVPLIYPTATISGLKPGVDYTITVYAVTVQLLDQCLRIHGPISINYRT
notes: as for B1

What was measured:
EGFR 525-Fc (human) = EGFR 525-Fc (human) (UniProt P00533); assay: direct binding ELISA, single point; clone captured by anti-His, 50 nM receptor-Fc, anti-human Fc HRP
[1] = target: EGFR-Fc (R&D Systems), ectodomain of human EGFR as a Fc fusion (human) (UniProt P00533); assay: as above
[2] = target: T1, EGFR-Fc (R&D Systems), ectodomain of human EGFR as a Fc fusion (human, UniProt P00533 25-645); assay: as above
T1 construct: extracellular domain; Bought from R&D Systems; also called EGFR-FL-Fc; full length EGFR Fc fusion protein; not shown: Fc of the purchased fusion
Method: Proteins encoded by independent clones were analyzed for binding to the full length ectodomain of EGFR as well as a truncated version containing the first 525 amino acids (EGFR 525) of the EGFR ectodomain in single point direct binding assays. Anti-His antibodies were used to capture protein clones in an oriented fashion followed by incubation with full length EGFR or EGFR 525 Fc fusion proteins. Bound receptor-Fcs were detected via anti-human Fc HRP conjugate with a chromogenic readout (i.e. A450). […] The SGE control is the ¹⁰FN3 domain as shown in SEQ ID NO: 1 with the integrin binding domain (RGD) substituted with amino acids SGE.
The protein populations resulting from the above selections are expressed in E. coli as His6 tagged proteins. The direct binding ELISA relies on the oriented capture of His6 tagged clones onto anti-His monoclonal antibody plates (EMD Biosciences, San Diego, Calif.) blocked with casein block buffer (Pierce, Rockford, Ill.) for 1-2 hrs. Typically a 1:50 dilution of HTPP material (0.2-2 ug) is captured for 1 hr, followed by incubation with 50 nM of the EGFR-Fc targets. Bound EGFR-Fcs are detected by incubation with anti-human HRP. Bound HRP conjugate is detected using the colorimetric substrate TMB (BD Biosciences, San Jose, Calif.) following the manufacturer's instructions.

[3] = target: T2, EGFR on the surface of human A431 cells (human, UniProt P00533 25-1210); assay: competition with 10 nM Eu-EGF on A431 cells, time resolved fluorescence; Midscale preparation
T2 construct: whole, on cells; also called HER-1; EGF receptor on cells
Method: (§1) Human epithelial carcinoma cells, clone A431, which express large numbers of EGFRs on the cell surface, are plated into 96 well tissue culture plates and allowed to adhere for 48 hours. The cells are washed with serum free media and dilutions of the selected clones are incubated with the cells for 15 minutes, 37° C. in a humidified incubator in 5% CO₂. This incubation allows binding of the clone to the EGFR on the cell surface.

[4] = target: T2, EGFR on the surface of human A431 cells; assay: competition with 10 nM Eu-EGF on A431 cells, time resolved fluorescence; protein diluted in PBS buffer
Method: as §1

[5] = target: T2, EGFR on the surface of human A431 cells; assay: cell-based or functional assay
[6] = target: T2, EGFR on the surface of human A431 cells; assay: competition with 10 nM Eu-EGF on A431 cells, time resolved fluorescence; protein diluted in Tris buffer
Method: as §1

[7] = target: T2, EGFR on the surface of human A431 cells; assay: cell-based competitive ligand binding assay on A431 cells, competitor Eu-EGF, time-resolved fluorescence (RFUs); parameter C of the four-parameter fit y = ((A - D)/(1 + (x/C)^B)) + D, x axis in nM; the legend calls C the IC50 but prints 258.258
Method: as §1

Row | Molecule | A450 (EGFR 525-Fc (human)) | A450 [2] | further results
1 | SGE control (10FN3 domain of SEQ ID NO: 1 with RGD substituted with SGE) (designed binder) | 0.139 A450 |  | A450 [1]: 0.143 A450
2 | B1 | 0.539 A450 | 0.213 A450 | 
3 | B2 | 0.375 A450 | 0.455 A450 | 
4 | B3 | 1.74 A450 | 1.38 A450 | 
5 | B4 | 0.803 A450 | 0.467 A450 | 
6 | B5 | 2.45 A450 | 2.37 A450 | IC50 [3]: 26.8 nM
7 | B6 | 2.47 A450 | 2.42 A450 | IC50 [4]: 13 nM; IC50 [3]: 14.7 nM; EGF-stimulated EGFR phosphorylation on tyrosine 1068, A431 cells (In Cell Western), IC50 [5]: 2800 nM; EGF-stimulated EGFR phosphorylation on tyrosine 1068, DiFi cells (ELISA), IC50 [5]: 1490 nM; EGF-stimulated EGFR phosphorylation on tyrosine 1068, FaDu cells (In Cell Western), IC50 [5]: 1300 nM; EGF-stimulated ERK phosphorylation, A431 cells (In Cell Western), IC50 [5]: 3100 nM; EGF-stimulated ERK phosphorylation, DiFi cells (ELISA), IC50 [5]: > 4000 nM; EGF-stimulated ERK phosphorylation, FaDu cells (In Cell Western), IC50 [5]: 2000 nM; EGF-stimulated total EGFR phosphorylation, A431 cells (In Cell Western), IC50 [5]: 2400 nM; EGF-stimulated total EGFR phosphorylation, DiFi cells (ELISA), IC50 [5]: 5300 nM; IC50 [6]: 20 nM
8 | B7 | 0.128 A450 | 2.1 A450 | 
9 | B8 | 0.137 A450 | 1.4 A450 | IC50 [7]: 258 nM
10 | B9 | 1.43 A450 | 1.42 A450 | 
11 | B10 | 1.85 A450 | 2.3 A450 | 
12 | B11 | 1.57 A450 | 1.95 A450 | 
13 | B12 | 1.61 A450 | 1.87 A450 | 
14 | B13 | 1.68 A450 | 1.72 A450 | 
15 | B14 | 1.53 A450 | 1.57 A450 | 
16 | B15 | 2.18 A450 | 2.43 A450 | 
17 | B16 | 2.49 A450 | 2.61 A450 | 
18 | B17 | 1.79 A450 | 1.9 A450 | 
19 | B18 | 2.41 A450 | 2.77 A450 | 
20 | B19 | 2.55 A450 | 2.96 A450 | 
21 | B20 | 2.32 A450 | 2.78 A450 | 
22 | B21 | 1.72 A450 | 1.43 A450 | 
23 | B22 | 0.925 A450 | 0.787 A450 | 
